Laboratory results: paper PMC5834491, “CryoEM structure of the human SLC4A4 sodium-coupled acid-base transporter NBCe1” (Nature Communications, 2018)

Biological target: the molecule itself
Assay: cryo-EM structure; single-particle cryoEM of NBCe1-A (~0.4 mg/ml) in amphipol PMAL-C8, 20 mM Tris-HCl pH 7.5, 150 mM NaCl; C2 symmetry imposed; 3.9 Å

B1: Human N-terminally Strep(II)-tagged wild-type NBCe1-A (SLC4A4 sodium-bicarbonate cotransporter) (natural protein, UniProt Q9Y6R1-2 1-1035, looked up)
chain: MSTENVEGKPSNLGERGRARSSTFLRVVQPMFNHSIFTSAVSPAAERIRFILGEEDDSPAPPQLFTELDELLAVDGQEMEWKETARWIKFEEKVEQGGERWSKPHVATLSLHSLFELRTCMEKGSIMLDREASSLPQLVEMIVDHQIETGLLKPELKDKVTYTLLRKHRHQTKKSNLRSLADIGKTVSSASRMFTNPDNGSPAMTHRNLTSSSLNDISDKPEKDQLKNKFMKKLPRDAEASNVLVGEVDFLDTPFIAFVRLQQAVMLGALTEVPVPTRFLFILLGPKGKAKSYHEIGRAIATLMSDEVFHDIAYKAKDRHDLIAGIDEFLDEVIVLPPGEWDPAIRIEPPKSLPSSDKRKNMYSGGENVQMNGDTPHDGGHGGGGHGDCEELQRTGRFCGGLIKDIKRKAPFFASDFYDALNIQALSAILFIYLATVTNAITFGGLLGDATDNMQGVLESFLGTAVSGAIFCLFAGQPLTILSSTGPVLVFERLLFNFSKDNNFDYLEFRLWIGLWSAFLCLILVATDASFLVQYFTRFTEEGFSSLISFIFIYDAFKKMIKLADYYPINSNFKVGYNTLFSCTCVPPDPANISISNDTTLAPEYLPTMSSTDMYHNTTFDWAFLSKKECSKYGGNLVGNNCNFVPDITLMSFILFLGTYTSSMALKKFKTSPYFPTTARKLISDFAIILSILIFCVIDALVGVDTPKLIVPSEFKPTSPNRGWFVPPFGENPWWVCLAAAIPALLVTILIFMDQQITAVIVNRKEHKLKKGAGYHLDLFWVAILMVICSLMALPWYVAATVISIAHIDSLKMETETSAPGEQPKFLGVREQRVTGTLVFILTGLSVFMAPILKFIPMPVLYGVFLYMGVASLNGVQFMDRLKLLLMPLKHQPDFIYLRHVPLRRVHLFTFLQVLCLALLWILKSTVAAIIFPVMILALVAVRKGMDYLFSQHDLSFLDDVIPEKDKKKKEDEKKKKKKKGSLDSDNDDSDCPYSEKVPSIKIPMDIMEQQPFLSDSKPSDRERSPTFLERHTSC
notes: Electrogenic sodium bicarbonate cotransporter 1, NBCe1-A variant, human, full length; Only the membrane domain was modelled (474 residues per protomer); Met1-Gly400, Cys583-Leu637, Ser713-Trp734, Glu814-Lys825 and Asp966-Cys1035 were not modelled. numbers count on: the NBCe1-A isoform (1035 residues); Homodimer in amphipol PMAL-C8; The pTT vector is named (Addgene), no plasmid number is printed; …
In the case of B1, the “stoichiometry N” value is reported as 2.
